From patent US20160083465A1 (AVEO PHARMACEUTICALS, published 2016)

T1: mouse IgG1 Fc-mature human GDF15 fusion protein (mFc-rhGDF15) (mouse; human)
T1 construct: Made in CHOK1SV cells, purified by Protein A and size exclusion; also called mouse Fc fused to human GDF15
T1 chain: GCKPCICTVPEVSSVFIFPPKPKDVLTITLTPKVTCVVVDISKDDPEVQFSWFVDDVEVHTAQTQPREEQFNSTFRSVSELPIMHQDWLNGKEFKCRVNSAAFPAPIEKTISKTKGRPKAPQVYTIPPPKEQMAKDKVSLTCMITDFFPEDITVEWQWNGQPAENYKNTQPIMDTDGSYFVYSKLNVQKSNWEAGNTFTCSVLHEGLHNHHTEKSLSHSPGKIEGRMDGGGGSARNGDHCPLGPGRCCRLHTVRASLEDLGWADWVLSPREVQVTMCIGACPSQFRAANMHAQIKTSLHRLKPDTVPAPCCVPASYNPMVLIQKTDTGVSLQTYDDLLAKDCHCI


Legend:
[1] = molecular target: T1, mouse IgG1 Fc-mature human GDF15 fusion …; test: SPR Biacore T100, 37 C, purified antibody captured by anti-human IgG Fc, antigen in solution
Method: (§1) Goat anti-human IgGs (Fc fragment specific, Jackson ImmunoResearch, West Grove, Pa.) were immobilized on carboxymethylated dextran CM4 sensor chips by amine coupling, according to a standard protocol. Analyses were performed at 37° C. using PBS containing 0.05% surfactant P20 as running buffer. The antibodies were captured in individual flow cells at a flow rate of 10 μL/minute. Injection time was varied for each antibody to yield an Rmax between 30 and 60 RU. […] The dissociation phase was monitored for up to 1200 seconds. The surface was then regenerated with two 60-second injections of 10 mM Glycine-HCl, pH 2.25, at a flow rate of 30 μL/minute.
(§2) Kinetic parameters were determined using the kinetic function of the BIAevaluation software (GE Healthcare) with double reference subtraction.

[2] = molecular target: T1, mouse IgG1 Fc-mature human GDF15 fusion …; test: SPR Biacore T100, 37 C, antibody from supernatant captured by anti-human IgG Fc, antigen in solution
[3] = molecular target: T1, mouse IgG1 Fc-mature human GDF15 fusion …; test: SPR Biacore T100, 37 C, antibody captured by anti-mouse IgG, antigen in solution
Method: as §1, with “Rabbit anti-mouse” for “Goat anti-human”, “(GE Healthcare)” for “(Fc fragment specific, Jackson ImmunoResearch, West Grove, Pa.)”, “chips (GE Healthcare)” for “chips”, “RU. 250 μg/mL mouse Fc (Jackson ImmunoResearch, West Grove, Pa.) was injected at 30 μL/minute for 120 seconds to block non-specific binding of capture antibodies to mouse Fc portion of the recombinant GDF15 protein when needed.” for “RU.”, “1500” for “1200”, “1.7,” for “2.25,”
as §2

Binder	Kd [1] [nM]	koff [1] [s⁻¹]	kon [1] [M⁻¹ s⁻¹]	Kd [2] [nM]	koff [2] [s⁻¹]	kon [2] [M⁻¹ s⁻¹]	Kd [3] [nM]	koff [3] [s⁻¹]	kon [3] [M⁻¹ s⁻¹]
08G01 (antibody, mouse IgG2b, kappa, Murine monoclonal from hybridoma, IgG2b kappa; also called antibody 08G01) heavy: EVLLQQSGPEVVKPGASVKIPCKASGYTFTDYNMDWVKQSHGKSLEWIGEINPNNGGTFYNQKFKGKATLTVDKSSSTAYMELRSLTSEDTAVYYCAREAITTVGAMDYWGQGTSVTVSSAKTTPPSVYPLAPGCGDTTGSSVTLGCLVKGYFPESVTVTWNSGSLSSSVHTFPALLQSGLYTMSSSVTVPSSTWPSQTVTCSVAHPASSTTVDKKLEPSGPISTINPCPPCKECHKCPAPNLEGGPSVFIFPPNIKDVLMISLTPKVTCVVVDVSEDDPDVQISWFVNNVEVHTAQTQTHREDYNSTIRVVSTLPIQHQDWMSGKEFKCKVNNKDLPSPIERTISKIKGLVRAPQVYILPPPAEQLSRKDVSLTCLVVGFNPGDISVEWTSNGHTEENYKDTAPVLDSDGSYFIYSKLNMKTSKWEKTDSFSCNVRHEGLKNYYLKKTISRSPGK light: DIQMTQSPASLSASVGETVTITCRASGNIHNYLAWYQQKQGKSPQLLVYNAKTLADGVPSRFSGSGSGTQYSLKINSLQPEDFGSYYCQHFWSSPYTFGGGTKLEIKRADAAPTVSIFPPSSEQLTSGGASVVCFLNNFYPKDINVKWKIDGSERQNGVLNSWTDQDSKDSTYSMSSTLTLTKDEYERHNSYTCEATHKTSTSPIVKSFNRNEC							0.19	0.0011	6e+06
17B11 (antibody, mouse IgG1, kappa, Murine monoclonal from hybridoma, IgG1 kappa; also called antibody 17B11) heavy: QVTLKESGPGILQPSQTLSLTCSFSGFSLSTSGMGVSWIRQPSGKGLEWLAHNDWDDDKRYKSSLKSRLTISKDTSRNQVFLKITSVDTADTATYYCARRVGGLEGYFDYWGQGTTLTVSSAKTTPPSVYPLAPGSAAQTNSMVTLGCLVKGYFPEPVTVTWNSGSLSSGVHTFPAVLQSDLYTLSSSVTVPSSTWPSETVTCNVAHPASSTKVDKKIVPRDCGCKPCICTVPEVSSVFIFPPKPKDVLTITLTPKVTCVVVDISKDDPEVQFSWFVDDVEVHTAQTQPREEQFNSTFRSVSELPIMHQDWLNGKEFKCRVNSAAFPAPIEKTISKTKGRPKAPQVYTIPPPKEQMAKDKVSLTCMITDFFPEDITVEWQWNGQPAENYKNTQPIMDTDGSYFVYSKLNVQKSNWEAGNTFTCSVLHEGLHNHHTEKSLSHSPGK light: DIVLTQSPASLAVSLGQRATISCRASQSVSTSRFSYMHWFQQKPGQAPKLLIKYASNLESGVPARFSGSGSGTDFTLNIHPVEGEDTATYYCQHSWEIPYTFGGGTKLEIKRADAAPTVSIFPPSSEQLTSGGASVVCFLNNFYPKDINVKWKIDGSERQNGVLNSWTDQDSKDSTYSMSSTLTLTKDEYERHNSYTCEATHKTSTSPIVKSFNRNEC							0.14	0.00051	3.7e+06
Hu01G06-1 (antibody, human IgG1, kappa, Mouse variable regions, human IgG1 and kappa constant regions; also called Chimeric 01G06; chimeric 01G06 (Hu01G06-1)) heavy: not shown light: DIQMTQSPASLSASVGETVTITCRTSENLHNYLAWYQQKQGKSPQLLVYDAKTLADGVPSRFSGSGSGTQYSLKINSLQPEDFGSYYCQHFWSSPYTFGGGTKLEIKRTVAAPSVFIFPPSDEQLKSGTASVVCLLNNFYPREAKVQWKVDNALQSGNSQESVTEQDSKDSTYSLSSTLTLSKADYEKHKVYACEVTHQGLSSPVTKSFNRGEC	0.16	0.00064	4.2e+06	0.14	0.00071	4.9e+06			
04F08 (antibody, mouse IgG1, kappa, Murine monoclonal from hybridoma, IgG1 kappa; also called antibody 04F08) heavy: QVTLKESGPGILQPSQTLSLTCSFSGFSLSTYGMGVTWIRQPSGKGLEWLAHIYWDDDKRYNPSLKSRLTISKDTSNNQVFLKITSVDTADTATYYCAQTGYSNLFAYWGQGTLVTVSAAKTTPPSVYPLAPGSAAQTNSMVTLGCLVKGYFPEPVTVTWNSGSLSSGVHTFPAVLQSDLYTLSSSVTVPSSTWPSETVTCNVAHPASSTKVDKKIVPRDCGCKPCICTVPEVSSVFIFPPKPKDVLTITLTPKVTCVVVDISKDDPEVQFSWFVDDVEVHTAQTQPREEQFNSTFRSVSELPIMHQDWLNGKEFKCRVNSAAFPAPIEKTISKTKGRPKAPQVYTIPPPKEQMAKDKVSLTCMITDFFPEDITVEWQWNGQPAENYKNTQPIMDTDGSYFVYSKLNVQKSNWEAGNTFTCSVLHEGLHNHHTEKSLSHSPGK light: DIVMTQSQKFMSTSVGDRVSVTCKASQNVGTNVAWYQQKLGQSPKTLIYSASYRYSGVPDRFTGSGSGTDFTLTISNVQSEDLAEYFCQQYNSYPYTFGGGTKLEIKRADAAPTVSIFPPSSEQLTSGGASVVCFLNNFYPKDINVKWKIDGSERQNGVLNSWTDQDSKDSTYSMSSTLTLTKDEYERHNSYTCEATHKTSTSPIVKSFNRNEC							0.19	0.00064	3.6e+06
Hu14F11-39 (antibody, human IgG1, kappa, Humanized, human IgG1 kappa) heavy: not shown light: DIQMTQSPSSLSASVGDRVTITCKASQNVGTNVAWFQQKPGKSPKALIYSPSYRYSGVPSRFSGSGSGTDFTLTISSLQPEDFATYFCQQYNSYPHTFGQGTKLEIKRTVAAPSVFIFPPSDEQLKSGTASVVCLLNNFYPREAKVQWKVDNALQSGNSQESVTEQDSKDSTYSLSSTLTLSKADYEKHKVYACEVTHQGLSSPVTKSFNRGEC	0.066	0.00019	3e+06						

The remaining lines, values ahead:

Kd [1] [nM]	koff [1] [s⁻¹]	kon [1] [M⁻¹ s⁻¹]	Kd [2] [nM]	koff [2] [s⁻¹]	kon [2] [M⁻¹ s⁻¹]	Kd [3] [nM]	koff [3] [s⁻¹]	kon [3] [M⁻¹ s⁻¹]	Binder
0.11	0.00038	3.6e+06	0.1	0.00043	4.1e+06				Hu01G06-46 (antibody, human IgG1, kappa, Humanized, human IgG1 kappa) heavy: not shown light: DIQMTQSPSSLSASVGDRVTITCRTSENLHNYLAWYQQKPGKSPKLLVYDAKTLADGVPSRFSGSGSGTDYTLTISSLQPEDFATYYCQHFWSSPYTFGQGTKLEIKRTVAAPSVFIFPPSDEQLKSGTASVVCLLNNFYPREAKVQWKVDNALQSGNSQESVTEQDSKDSTYSLSSTLTLSKADYEKHKVYACEVTHQGLSSPVTKSFNRGEC
0.099	0.00036	3.6e+06	0.089	0.00044	5e+06				Hu01G06-52 (antibody, human IgG1, kappa, Humanized, human IgG1 kappa) heavy: not shown light: DIQMTQSPSSLSASVGDRVTITCRTSENLHNYLAWYQQKPGKSPKLLVYDAKTLADGVPSRFSGSGSGTDYTLTISSLQPEDFATYYCQHFWSSPYTFGQGTKLEIKRTVAAPSVFIFPPSDEQLKSGTASVVCLLNNFYPREAKVQWKVDNALQSGNSQESVTEQDSKDSTYSLSSTLTLSKADYEKHKVYACEVTHQGLSSPVTKSFNRGEC
0.065	0.00018	3.3e+06							Hu14F11-47 (antibody, human IgG1, kappa, Humanized, human IgG1 kappa) heavy: not shown light: DIQMTQSPSSLSASVGDRVTITCKASQNVGTNVAWFQQKPGKSPKALIYSPSYRYSGVPSRFSGSGSGTDFTLTISSLQPEDFATYFCQQYNSYPHTFGQGTKLEIKRTVAAPSVFIFPPSDEQLKSGTASVVCLLNNFYPREAKVQWKVDNALQSGNSQESVTEQDSKDSTYSLSSTLTLSKADYEKHKVYACEVTHQGLSSPVTKSFNRGEC
